± gives the uncertainty stated by the source.
B1: Homeobox protein cut-like 1, residues 941 to 1008; numbered along this chain, P39880 (parent)
chain: QEVDTIELTRQVKEKLAKNGICQRIFGEKVLGLSQGSVSDMLSRPKPWSKLTQKGREPFIRMQLWLNG
B2: Protein maelstrom homolog, residues 3 to 71; numbered along this chain, Q96JY0 (parent)
chain: NRKASRNAYYFFVQEKIPELRRRGLPVARVADAIPYCSSDWALLREEEKEKYAEMAREWRAAQGKDPGP

Variants of: B1
Assay: abundance fitness (aPCA) (normalised: wild type 0, dead -1); higher = more abundant; growth selection in yeast, the domain comes from the species named
Settings: Homo sapiens

| Variant | abundance fitness |
| --- | --- |
| L64C | -0.181 ± 0.1 |
| L64E | 0.185 ± 0.057 |
| L64F | -0.326 ± 0.099 |
| L64G | -0.074 ± 0.06 |
| L64H | -0.137 ± 0.12 |
| L64I | -0.195 ± 0.12 |
| L64K | 0.158 ± 0.064 |
| L64M | -0.049 ± 0.067 |
| L64N | 0.065 ± 0.096 |
| L64P | -0.562 ± 0.074 |
| L64Q | 0.144 ± 0.082 |
| L64R | 0.103 ± 0.055 |
| L64S | 0.068 ± 0.058 |
| L64T | 0.015 ± 0.061 |
| L64V | -0.135 ± 0.049 |
| L64Y | 0.005 ± 0.1 |
| W65A | -0.666 ± 0.064 |
| W65C | -0.718 ± 0.12 |
| W65D | -0.994 ± 0.15 |
| W65E | -0.968 ± 0.12 |
| W65F | -0.326 ± 0.095 |
| W65G | -1.01 ± 0.1 |
| W65H | -0.864 ± 0.28 |
| W65I | -1.3 ± 0.21 |
| W65K | -0.715 ± 0.088 |
| W65M | -0.744 ± 0.08 |
| W65N | -1.45 ± 0.3 |

| Variant | abundance fitness |
| --- | --- |
| W65P | -1.22 ± 0.15 |
| W65Q | -1.24 ± 0.21 |
| W65R | -0.76 ± 0.081 |
| W65T | -1.31 ± 0.17 |
| W65Y | -0.309 ± 0.11 |
| L66A | -0.62 ± 0.089 |
| L66C | -0.499 ± 0.13 |
| L66D | -1.21 ± 0.33 |
| L66E | -0.909 ± 0.15 |
| L66G | -0.884 ± 0.09 |
| L66I | -0.166 ± 0.083 |
| L66K | -0.63 ± 0.084 |
| L66M | -0.244 ± 0.073 |
| L66N | -0.568 ± 0.11 |
| L66P | -0.959 ± 0.091 |
| L66Q | -1.17 ± 0.15 |
| L66S | -0.82 ± 0.072 |
| L66T | -0.8 ± 0.075 |
| L66V | -0.223 ± 0.061 |
| L66W | -0.35 ± 0.068 |
| L66Y | -0.762 ± 0.091 |
| N67A | -0.03 ± 0.085 |
| N67C | -0.193 ± 0.092 |
| N67D | -0.21 ± 0.11 |
| N67E | 0.072 ± 0.12 |
| N67G | -0.04 ± 0.098 |
| N67H | -0.128 ± 0.092 |

| Variant | abundance fitness |
| --- | --- |
| N67I | -0.326 ± 0.095 |
| N67K | 0.045 ± 0.068 |
| N67L | -0.128 ± 0.063 |
| N67M | -0.186 ± 0.12 |
| N67P | -0.758 ± 0.12 |
| N67Q | -0.088 ± 0.1 |
| N67R | -0.016 ± 0.06 |
| N67S | -0.031 ± 0.061 |
| N67T | -0.041 ± 0.07 |
| N67V | -0.191 ± 0.1 |
| N67Y | -0.197 ± 0.085 |
| G68A | -0.046 ± 0.085 |
| G68C | -0.258 ± 0.08 |
| G68D | 0.013 ± 0.095 |
| G68F | -0.265 ± 0.19 |
| G68H | -0.455 ± 0.14 |
| G68I | -0.662 ± 0.16 |
| G68K | -0.091 ± 0.11 |
| G68L | -0.343 ± 0.12 |
| G68P | -0.576 ± 0.14 |
| G68Q | -0.212 ± 0.23 |
| G68R | -0.14 ± 0.066 |
| G68S | -0.229 ± 0.072 |
| G68T | -0.402 ± 0.15 |
| G68V | -0.565 ± 0.086 |
| G68W | -0.624 ± 0.091 |

Variants of: B2
Assay: as above
Settings: Homo sapiens

| Variant | abundance fitness |
| --- | --- |
| Y9I | -0.09 ± 0.13 |
| D66C | -0.241 ± 0.11 |
| A8Q | -0.304 ± 0.082 |
| A56L | -0.296 ± 0.057 |
| E19M | -0.303 ± 0.088 |
| R57W | -0.378 ± 0.094 |
| Y10L | -0.332 ± 0.072 |
| Y10Q | -0.254 ± 0.079 |
| E54C | -0.161 ± 0.075 |
| F12W | -0.404 ± 0.068 |
| R29Y | -0.101 ± 0.15 |
| Q14A | -0.171 ± 0.067 |
| A53H | 0.037 ± 0.18 |
| K65C | 0.074 ± 0.13 |
| P69F | 0.035 ± 0.17 |
| Y10P | -1.07 ± 0.18 |
| E46T | -0.188 ± 0.071 |
| A31I | -0.603 ± 0.27 |
| F11R | -0.674 ± 0.091 |
| A4H | -1.04 ± 0.39 |
| P67G | 0.009 ± 0.048 |
| C37E | -0.636 ± 0.13 |

| Variant | abundance fitness |
| --- | --- |
| A56C | 0.027 ± 0.084 |
| A53I | -0.263 ± 0.22 |
| R6P | -0.179 ± 0.14 |
| V27S | -0.104 ± 0.087 |
| A8E | -0.294 ± 0.14 |
| A33F | -0.808 ± 0.22 |
| F12Y | 0.013 ± 0.1 |
| W41S | -0.888 ± 0.069 |
| E58M | -0.594 ± 0.17 |
| A8R | -0.385 ± 0.072 |
| E54S | 0.107 ± 0.056 |
| L20R | -0.959 ± 0.081 |
| A42F | -0.081 ± 0.12 |
| G64A | 0.146 ± 0.034 |
| E19Q | -0.623 ± 0.13 |
| D32W | -1.07 ± 0.15 |
| P69L | 0.189 ± 0.13 |
| E19S | -0.204 ± 0.053 |
| D32G | -0.794 ± 0.084 |
| S5G | -0.03 ± 0.084 |
| R29E | 0.275 ± 0.065 |
| S39Y | 0.041 ± 0.11 |

| Variant | abundance fitness |
| --- | --- |
| E58I | -0.279 ± 0.14 |
| R45V | -0.151 ± 0.053 |
| R45F | -0.502 ± 0.15 |
| D32L | -1.05 ± 0.13 |
| R22N | -0.154 ± 0.12 |
| N7I | -0.355 ± 0.22 |
| Y9C | -0.289 ± 0.16 |
| R29L | -0.032 ± 0.056 |
| V27Q | -1.08 ± 0.21 |
| R2C | 0.123 ± 0.09 |
| A42P | -0.326 ± 0.071 |
| A53Y | 0.265 ± 0.44 |
| S5E | 0.137 ± 0.34 |
| P18T | -0.411 ± 0.074 |
| N7L | -0.168 ± 0.061 |
| E19N | -0.966 ± 0.47 |
| E19R | -0.674 ± 0.058 |
| I34K | 0.406 ± 0.13 |
| Y9N | -0.168 ± 0.17 |
| A31Y | -0.178 ± 0.17 |
| C37I | -0.229 ± 0.15 |
| A33Q | -1.05 ± 0.17 |

| Variant | abundance fitness |
| --- | --- |
| R29K | 0.178 ± 0.064 |
| E19P | -0.733 ± 0.14 |
| R22S | -0.046 ± 0.058 |
| R22D | -0.079 ± 0.12 |
| R2K | 0.045 ± 0.09 |
| A4M | -0.011 ± 0.13 |
| K16Y | -0.697 ± 0.46 |
| P67E | -0.046 ± 0.084 |
| A53E | 0.13 ± 0.075 |
| V30G | -0.607 ± 0.061 |
| P69N | -0.341 ± 0.38 |
| A4E | 0.159 ± 0.11 |
| P35M | -0.18 ± 0.082 |
| A56V | -0.268 ± 0.058 |
| L44F | -0.443 ± 0.18 |
| Q63F | -0.202 ± 0.16 |
| W41G | -0.784 ± 0.055 |
| A31V | -0.1 ± 0.072 |
| F11H | -0.107 ± 0.18 |
| K16F | -0.555 ± 0.26 |
| E46M | -0.134 ± 0.097 |
